From patent publication US20120178124A1, “STEROL SIDE CHAIN-CLEAVING ENZYME PROTEIN AND USE THEREOF” (MITSUBISHI CHEMICAL CORPORATION, priority 2009, published 2012)
Blank lines part the entries; values can stand above or below the molecule they belong to.

What was measured:
CYP204A1 = assay: Conversion of 4-cholesten-3-one to progesterone by Bacillus megaterium cell mass expressing the CYP204A1 gene; details: Bacillus megaterium pXYL204CB cell suspension, 30° C., 24 hours
[1] = Thermostability test of cell-free extract; type: biochemical; details: for Relative activity: 140 hr versus 0 hr; for Activity 0 hr: enzyme protein solution before conservation, reaction 15° C., 4 hours
Experimental: (§1) To 20 ml of the cell suspension prepared in (2) above, 680 μl of X10 Bug Buster (Novagen), 20 μl of Benzonase (Novagen), and 2 ml of 40 mg/ml lysozyme were added, and the obtained mixture was then shaken at 30° C. for 30 minutes to disintegrate the cells. Thereafter, the reaction solution was centrifuged to obtain the cell-free extract. The obtained, approximately 20 ml of cell-free extract was dialyzed against 1 L of Buffer R (20 mM KPB pH 7.4, 20% glycerol) two times, and the deposited precipitate was then removed by centrifugation. The cell-free extract obtained as a supernatant herein was used in the subsequent experiments.
The cell-free extract prepared in (3) above was conserved at various temperature for 140 hours. The conservation temperature was set at 6° C., 10° C., 20° C., 30° C., 37° C., or 45° C. Using the enzyme protein solution before conservation and the sample obtained after conservation for 140 hours, conversion of 4-cholesten-3-one was carried out, and stability was examined. The reaction solution was prepared, such that 1 ml of the buffer comprised an enzyme protein solution of CYP204A1 or CYPSS that had been conserved at each temperature, 64 μg/ml spinach-derived ferredoxin, 0.1 U/ml spinach-derived ferredoxin reductase protein, 3 U/ml glucose dehydrogenase, 60 mM glucose, 50 μg/ml 4-cholesten-3-one, 2 mM NADH, and 2 mM NADPH. The reaction was initiated by addition of NADH and NADPH, and it was carried out at 200 rpm at 15° C. for 4 hours. Thereafter, 1.5 ml of ethyl acetate was added to the reaction solution to terminate the reaction, and extraction was carried out. Then, extraction was carried out again with 0.75 ml of ethyl acetate. The obtained ethyl acetate phase was solidified using an evaporator, and the residue was then dissolved in 200 μl of methanol. Thereafter, progesterone was detected by HPLC analysis. […] In particular, when the cell-free extract was conversed at 20° C. for 140 hours, CYP204A1 maintained 47% of its activity and CYPSS maintained 39% of its activity.

[2] = Kinetics analysis of CYP204A1 and CYPSS; type: biochemical; details: 4-cholesten-3-one 100 μg/ml (so in the source)
[3] = Analysis of the optimum pH, conversion of 4-cholesten-3-one by cell-free extract; type: biochemical; details: for Specific activity: 4-cholesten-3-one to progesterone, 30° C., 14 hours; for optimum pH (pH of highest activity): conversion of 4-cholesten-3-one to progesterone
Experimental: as §1
Using the cell-free extract prepared in (3) above, conversion of 4-cholesten-3-one was carried out at various pH values. The reaction solution was prepared, such that 1 ml of Buffer R comprised […] CYP204A1 or […] CYPSS204A, 64 μg/ml spinach-derived ferredoxin, a 0.1 U/ml spinach-derived ferredoxin reductase protein, 3 U/ml glucose dehydrogenase, 60 mM glucose, 50 μg/ml 4-cholesten-3-one, 2 mM NADH, and 2 mM NADPH. Then, 562 μl of 200 mM Buffer having various pH values was added to 1 ml of the reaction solution, so as to adjust the pH of the reaction solution. The reaction was initiated by the addition of NADH and NADPH, and it was carried out at 200 rpm at 30° C. for 14 hours. Thereafter, 1.5 ml of ethyl acetate was added to the reaction solution to terminate the reaction, and extraction was carried out. Then, extraction was carried out again with 0.75 ml of ethyl acetate. The obtained ethyl acetate phase was solidified using evaporator, and the residue was then dissolved in 200.d of methanol. Thereafter, progesterone was detected by HPLC analysis. The enzyme protein activity for conversion of 4-cholesten-3-one to progesterone under various pH conditions is shown in Table 1. The enzyme protein activity was indicated by the amount (g) of progesterone generated per hour per mol of P450.

[4] = Analysis of the optimum temperature, conversion of 4-cholesten-3-one by cell-free extract; type: biochemical; details: for Specific activity: Tris-HCl pH 7.5, 4 hours, 4-cholesten-3-one to progesterone
Experimental: as §1
Using the cell-free extract prepared in (3) above, conversion of 4-cholesten-3-one was carried out at […]. The reaction solution was prepared, such that 1 ml of the buffer comprised 215 pmol/ml CYP204A1 or 391 pmol/ml CYPSS, 64 μg/ml spinach-derived ferredoxin, 0.1 U/ml spinach-derived ferredoxin reductase protein, 3 U/ml glucose dehydrogenase, 60 mM glucose, 50 μg/ml 4-cholesten-3-one, 2 mM NADH, and 2 mM NADPH. Tris-HCl was added to the reaction solution so as to adjust it to pH 7.5. The reaction was initiated by addition of NADH and NADPH, and it was carried out at 200 rpm for 4 hours, under temperature conditions of 10° C., 15° C., 20° C., 25° C., or 30° C. Thereafter, 1.5 ml of ethyl acetate was added to the reaction solution to terminate the reaction, and extraction was carried out. Then, extraction was carried out again with 0.75 ml of ethyl acetate. The obtained ethyl acetate phase was solidified using evaporator, and the residue was then dissolved in 200 μl of methanol. Thereafter, progesterone was detected by HPLC analysis. The enzyme protein activity for conversion of 4-cholesten-3-one to progesterone under various temperature conditions is shown in Table 1.

[5] = substrate: CC(C)CCC[C@@H](C)[C@H]1CC[C@H]2[C@@H]3CCC4=CC(=O)CC[C@]4(C)[C@H]3CC[C@]12C; assay: purified protein, by the assay type; details: other: 4-cholesten-3-one 0.1 to 500 μM, pH 7.5, 15° C., 60 minutes, Lineweaver-Burk plot
[6] = conserved at 6° C. for 140 hours
[7] = conserved at 10° C. for 140 hours
[8] = conserved at 20° C. for 140 hours
[9] = conserved at 30° C. for 140 hours
[10] = conserved at 37° C. for 140 hours
[11] = conserved at 45° C. for 140 hours

Molecule: CC(C)CCC[C@@H](C)[C@H]1CC[C@H]2[C@@H]3CCC4=CC(=O)CC[C@]4(C)[C@H]3CC[C@]12C [4-cholesten-3-one]
conversion rate of 4-cholesten-3-one to progesterone (CYP204A1): 24.5%

enzyme protein activity in comparison with that at 10 μM 4-cholesten-3-one [2]: 67%
B1: CYP204A1: P450scc from Novosphingobium aromaticivorans ATCC 700278, amino acid sequence SEQ ID NO: 23 (protein)
chain: MARAATAAGNGLPLLDGGVPLLGHLAQFFRDPVSVLKRGYRSKGRLFAMNFMGQRMNVMLGPEHNRFFFEETDKLLSIRESMPFFLKMFSPEFYSFAEMDEYLRQRSIIMPRFKAASMKQYVPVMVEESLNLVERLGEEGEFDLIPTLGPVVMDIAAHSFMGREFHEKLGHEFFELFRDFSGGMEFVLPLWLPTPKMVKSQRAKRKLHAILQSWIDKRRAAPLDPPDFFQTMIETKYPDGRPVPDEIIRHLILLLVWAGHETTAGQVSWALADLLQNPDYQKVLRGEISSLLGGSDGRDLGWEQAVAMEKMDLALRETERLHPVAYMLSRKARADIERDGYVIRKGEFVLLAPSVSHRMEETFRNPDAYDPERFNPANPDAQIESNSLIGFGGGVHRCAGVNFARMEMKVLVAILLQNFDMELMDEVRPIAGASTYWPAQPCRVRYRRRKLDGSEAGADMAALARAAGCPAHT
modifications: Novosphingobium aromaticivorans
Activity 140 hr [1, 6]: 4.5 µg/mL
Relative activity ([1]; conserved at 6° C.): 85%
Activity 140 hr [1, 7]: 3.9 µg/mL
Relative activity ([1]; conserved at 10° C.): 74%
Activity 140 hr [1, 8]: 2.5 µg/mL
Activity 140 hr [1, 9]: 0.5 µg/mL
Relative activity ([1]; conserved at 30° C.): 9%
Activity 140 hr [1, 10]: 0 µg/mL
Relative activity ([1]; conserved at 37° C.): 0%
Activity 140 hr [1, 11]: 0 µg/mL
Relative activity ([1]; conserved at 45° C.): 0%
Activity 0 hr [1]: 5.3 µg/mL
Specific activity ([3]; KPB pH 6.2): 0 g/h/mol
Specific activity ([3]; KPB pH 6.7): 0 g/h/mol
Specific activity ([3]; KPB pH 7.1): 0 g/h/mol
Specific activity ([3]; KPB pH 7.4): 0 g/h/mol
Specific activity ([3]; KPB pH 7.9): 0 g/h/mol
Specific activity ([3]; TES pH 6.6): 0 g/h/mol
Specific activity ([3]; TES pH 6.8): 0 g/h/mol
Specific activity ([3]; TES pH 7.3): 39 g/h/mol
Specific activity ([3]; TES pH 7.5): 97 g/h/mol
Specific activity ([3]; TES pH 8.0): 82 g/h/mol
Specific activity ([3]; Tris-HCl pH 7.5): 207 g/h/mol
Specific activity ([3]; Tris-HCl pH 8.2): 114 g/h/mol
Specific activity ([3]; Tris-HCl pH 8.7): 0 g/h/mol
optimum pH (pH of highest activity) [3]: 7.5
Specific activity ([4]; 10° C.): 507 g/h/mol
Specific activity ([4]; 15° C.): 698 g/h/mol
Specific activity ([4]; 20° C.): 719 g/h/mol
Specific activity ([4]; 25° C.): 550 g/h/mol
Specific activity ([4]; 30° C.): 285 g/h/mol

enzyme protein activity in comparison with that at 10 μM 4-cholesten-3-one [2]: 90%
B2: Sphingomonas subterranea NBRC16086 P450scc CYPSS204A (CYPSS), wild type, SEQ ID NO: 2 (Novosphingobium subterraneum) (protein)
chain: MASAAAGADGLPLLDGGVPLLGHLAQFFRDPVSVLKRGYRSKGRLFAMNFMGQRMNVMLGPEHNRFFFEETDKLLSIRESMPFFLKMFSPEFYSFAEMDEYLRQRAIIMPRFKAASMKQYVPVMVEESLNLVERLGEEGEFDLIPTLGPVVMDIAAHSFMGREFHEKLGHEFFELFRDFSGGMEFVLPLWLPTPKMVKSQRAKKKLHAILQSWIDKRRASPLDPPDFFQTMIETKYPDGRAVPDEIIRHLILLLVWAGHETTAGQVSWALADLLQNPGYQQVLREEVASLLGGSDGRALGWEQAVAMEKMDLALRETERLHPVAYMLSRKASADIERDGYRIRKGEFVLLAPSVSHRMEETFRNADAYDPERFNPQNPDAQIESNSLIGFGGGVHRCAGVNFARMEMKVLVAILLQNFDMELIDEVRPIAGASTYWPAQPCRVRYKRRKLDGAGGSADVAALAKAAGCPAHA
Activity 140 hr [1, 6]: 11.6 µg/mL
Relative activity ([1]; conserved at 6° C.): 81%
Activity 140 hr [1, 7]: 10.5 µg/mL
Relative activity ([1]; conserved at 10° C.): 73%
Activity 140 hr [1, 8]: 5.6 µg/mL
Activity 140 hr [1, 9]: 1 µg/mL
Relative activity ([1]; conserved at 30° C.): 7%
Activity 140 hr [1, 10]: 0 µg/mL
Relative activity ([1]; conserved at 37° C.): 0%
Activity 140 hr [1, 11]: 0 µg/mL
Relative activity ([1]; conserved at 45° C.): 0%
Activity 0 hr [1]: 14.4 µg/mL
Specific activity ([3]; KPB pH 6.2): 0 g/h/mol
Specific activity ([3]; KPB pH 6.7): 19 g/h/mol
Specific activity ([3]; KPB pH 7.1): 21 g/h/mol
Specific activity ([3]; KPB pH 7.4): 0 g/h/mol
Specific activity ([3]; KPB pH 7.9): 0 g/h/mol
Specific activity ([3]; TES pH 6.6): 0 g/h/mol
Specific activity ([3]; TES pH 6.8): 16 g/h/mol
Specific activity ([3]; TES pH 7.3): 76 g/h/mol
Specific activity ([3]; TES pH 7.5): 165 g/h/mol
Specific activity ([3]; TES pH 8.0): 168 g/h/mol
Specific activity ([3]; Tris-HCl pH 7.5): 301 g/h/mol
Specific activity ([3]; Tris-HCl pH 8.2): 269 g/h/mol
Specific activity ([3]; Tris-HCl pH 8.7): 40 g/h/mol
optimum pH (pH of highest activity) [3]: 7.5
Km [5]: 1.1 µM
Specific activity ([4]; 10° C.): 918 g/h/mol
Specific activity ([4]; 15° C.): 1279 g/h/mol
Specific activity ([4]; 20° C.): 1133 g/h/mol
Specific activity ([4]; 25° C.): 936 g/h/mol
Specific activity ([4]; 30° C.): 465 g/h/mol
optimum temperature for action (temperature of highest activity) ([4]; conversion of 4-cholesten-3-one to progesterone, pH 7.5): 15 °C
